From article PMC11099015
Read-outs that look alike come from different tables or passages of the source.

What was measured:
SETD3(1−498) [1] = biological target: SETD3(1−498) (UniProt Q86TU7); experiment: BLI
SETD3(1−498) [2] = biological target: SETD3(1−498) (UniProt Q86TU7); experiment: AUC

Substance	Kd (SETD3(1−498) [1]; 2A KHY(70-72)AAA at 12.5, 6.25, 3.13, 1.56 and 0.78 µM) [nM]	stoichiometry N (SETD3(1−498) [2])	Kd (SETD3(1−498) [1]) [nM]
EV71 2A C110A K70A; H71A; Y72A	1750		
EV71 2A C110A (enzyme)		1	22.7
CVB3 2A C107A (enzyme)			11.8
